Test results taken from the nanobody polyreactivity screen of Harvey et al. (2022).

Assay: yeast display, Sf9 membrane polyspecificity reagent, FACS + sequencing; frameworks hold sequencing errors
How it was run: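 Sorting gates, low and high (top ~1%), were placed on anti-HA fluorescence to track expression and on streptavidin fluorescence to track reagent binding. A clone's polyreactivity label is taken from the gate it came out of. The reagent was 10% biotinylated, detergent-solubilized Sf9 membrane, applied for 1 hour at 4 °C to galactose-induced yeast display cells.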

Row | Sequence | polyreactivity (PSR sort gate)
1 | QVQLVESGGGLVQEGGSLRLSCAASGSIFIANAMGWYRQAPGKERELVARITRGGRTNYADSVKGRFTISRDNAKNTVYLQMNSLKPEDTAVYYCAAVYYVGFPHKYDYWGQGTQVTVSS | low polyreactivity
2 | QVQLVESGGGLVQAGGSLRLSCAASGSIFPAYAMGWYRQAPGKERELVAAITGSGGSTYYADSVKGRFTISRDNAKNTVYLQLNSLKPEDTAVYYCAATIRQFRRYDYWGQGTQVTVSS | low polyreactivity
3 | QVQLVESGGGLVQAGGILRLSCAASGFTFTRNAKGRYRQAPGKERELVAAISSGGRTYYADSVKGRFTISRDNAKNTVYLQMNSLKPEDTAVYYCPTTIWGPVEGYDYWGQGTQETVSS | high polyreactivity
4 | QVQLVESGGGLVQAGGSLRLSCAASGITFHDNAMGWYRQAPGKERELVAGSTSGGSTFYADSVKGRFTISRDNAKNTVYLQMNSLKPEDTAVYYCAARRSKYRRGGGYYWGQGTQVTVSS | high polyreactivity
5 | QVQLVESGGGLVQAGGSLRLSCAASGSIFYANDMGWYRQAPGKERELVADITSDSTYYADSVKGRFTISRDNAKNTVYLQMNSLKPEDTAVYYCAADVYGVHAPQSDYWTKYDYWGQGTQVTVSS | low polyreactivity
6 | QVQLVESGGGLVQAGGSLRLSCAASGRTFARNAMGWYRQAPGKERELGAAISSSGGSTYYADSVKGRFTISRDNAKNTVYLQMNSLKPEDTAVYYCDARSRHAYGYWGQGTQVTVSS | high polyreactivity
7 | QVQLVESGGGLVQAGGSLRLSCAASGFTFFHYAMGWYRQAPGKERELVAAINTRGSRTYYADSVKGRFTISRDNAKNTVYLQMNSLKPEDNAVYYCAAEDYWYDFDYWGQGTQVTVSS | high polyreactivity
8 | QVQLVESGGGLVQAGGSLRLSCAASGSIFRTNTMGWYRQAPGKEREFVAAITAIGDSTYYADSVKGRFTISRDNAKNTVYLQMNSLKPEDTAVYYCAAEKVSWGYHFYSSYDYWGQGTQVTVSS | low polyreactivity
9 | QVQLVESGGGLVQAGGSLRLSCAASGRTFQRNVMGWYRQAPGKERELVAAISSSGGGTYYADSVQGRFTISRANAKNTVYLQMNSLKPDDTAVYYCAARYRSYGGYGYYYWGLGTQVTVSS | high polyreactivity
10 | QVQLVESGGGLVQAGGSLRLSCAASGITFSRNAMGWSRQARGKERELVAAISRGGSTNYADSVKGRFTISRDNAKNTVYLQMNSLKPEDTAVYYCNAPGYLSWRFYGVKRNYWGQGTQVTVSS | high polyreactivity
11 | QVQLVESGGGLVQAGGSLRLSCAASGRIFFANAMGWYRQAPGKERELVAAITSDGSTDYADSVKGRFTISRDNAKNTVYLQMNSLKPEDTAVYYCNADAYYRYGITMDYWGQGTQVTVSS | low polyreactivity
12 | QVQLVESGGGLVQAGGSLRLSCPASGITFKGYTMGWYRQAPGKERELVATISRGGRTYADSVKGRFTISRDNAKKTFYLQMNSLKPEDTSVYYCAADKYWAQNDYWGQGTQVTVSS | low polyreactivity
13 | QVQLVESGGGLVQAGGSLRLSCAASGSMFSTYAMGWYRQAPGKERELVAASSRSGGSTYYADSVKGRFTISRDNAKNTVYLQMNSLKPEDTADYYCAKVARRQRYDYWGQGTQVTVSS | high polyreactivity
14 | QDQLVESGGGLVQAGGSLRLSCAASGRIFRPNTMGWYRQAPGKERELVASISLSAGSTYYADSVKGRFTISRDNAKNTVYLQMNSLKPEDTAVYYCNATYLSWYRYKYNYWGQGTQVTVSS | low polyreactivity
15 | QVQLVESGGGLVQAGGSLRLSCAASGNTVNFYAMGWYREAPGKERELVASITSGGGTNYADSVKGRFTISRDNAKNTVYLQMNSLKPEETAVYFCAAQFYYHFRFHCDWGQGTQVTVSS | low polyreactivity
16 | QVQLVESGGGLVQAGGSLRLSCAASGSTFDVYAMGWYRQAPGKERELVASISITDGSTYYADSVKGRFTISRDNAKNTVYLPMNSLKPEDTAVYYCNAQYGGSYVEYDYWGQGTQVTVSA | low polyreactivity
17 | QVQLVESGGGLVQAGGSLRLSCAASGTTFPRYAMGWYRQAPGKERELVAAISSGGSTYYADSVKGRFTISRDNAKNTVYLQMNRLKPEDTAVYYCNARRSRSRYDYWGQGTQVTVSS | high polyreactivity
18 | QVQLVESGGGLDHAGGSLRLSCAASGRTFLGYAMGWYRQAPGKERELVAAISSSGGSTYYADSVKGLFTISRDNAKNTVYLQTNSLKPEDTAVYYCAKRKPATCASGHRFGYWGQGTQVTVSS | high polyreactivity
19 | QVQLVESGGGLVQAGGSLRLSCAASGRIFKAYAMGWYRQAPGKERELVAVITGTGRTTYADSVKGRFTISRDNAKNTVYLQMNSLKPEDTAVYYCNVRWYYKGDYWGQGTLVTVSS | high polyreactivity
20 | QVQLVESVRGLVQAGGSLRLSCASSGSTFYGYTLGWYRQAPGKERELVAAISWSGGSTYYADSVKGRFTISRDNAKNTVYLQMNSLKPEDTAVFYCAARWGYSRRGYRGYDYWGQGTQVTVSS | high polyreactivity
21 | QVQLLESGGGLVQAGGSLRLSCAASGSIFNRYAMGWYRQAPGKERELVAAISSTGSTYYADSVKGRFTISRDNAKNTVYLQMNSLKPEDTAVYYCNAEATHDWLRVDTYEDWGQGTQVTVSS | low polyreactivity
22 | QVQLVESGGGLVQAGGSLRLSCAASGRIFYLYGMGWYRQAPGKERELVAAIDWSDGSTYYADSVKGRFTISRDNAKNTVYLQMNSLKPEDTAVYYCAADGWAAWLYDYWGQGTQVTVSS | low polyreactivity

Row | Sequence | polyreactivity (PSR sort gate)
23 | QVQLVESGGGLVQAGGSLRLSCAASGFIFYRYTMGWYRQAPGKERELVAGISSRGTRTYYADSVKGRFTISRDNAKNTVYLQMNSLKPEDTAVYYCAAVLTQPKKVNYWGQGTQVTVSS | high polyreactivity
24 | QVQLVESCGGLVQAGCSLRLSCAASGSIFDGNAMGWYRQAPGKERDLVAVISSRGTRTYYADSVKGRFTISRDNAKITVYLQMNSLKPEDTAVYYFNTRTSDLNGSGDYWGQGTQVTVSS | high polyreactivity
25 | QVQLVESRGGLVQAGGSLRLSCAASGSTFPGYAMGWYRQPPGKERELVAAINWRGASTYYADSVKGRFTMSRDNAKNTVYLQMNSLKPEDTAVYYCAGKYNHVTDEYEYWGQGTQVTVSS | high polyreactivity
26 | QVQLVESGGGLFQAGGSLRLSCAASGRIFGYNSMGWDRQAPGKERELVAAIRRRGGTTYYADSVKGRFTISRDNAKNTVYLQMNSLKPEDNAVYYCAADLTFSYRQSAGRYSTYGYWGQGTQVTVSS | high polyreactivity
27 | QVQLVESVGGLVQAGGSLRLSCAASGRTFRYYAMGWYRQAPGKERELVAAISKTGGSTYYADSVKGRFTISRDNAKNTVYLQMNSLKPEDTAVYYCAAQSGWGYSTYYYWGQGTQVTVSS | high polyreactivity
28 | QVQLVESGVGLVQSGGSLRLSCAASGFSIEPYAMGLYRQAPGKERELVAAISWSGGSTYYADSVKGRFTISRDNAKNTVYLQMNSLKPEDTAVYYCAAEWYNSAYYEYDYWGQGTQVTVST | high polyreactivity
29 | QVQLVESGGGLVQAGGSLRLSCAASGSTFISYAMGWYRQAPGKERELVAAIRYRDGRTYYADSVKGRFTNSRDNAKNTVYLQMISLKPEDTAVYYCAAKYRGLYSGMYYWGQGTQVTVSS | high polyreactivity
30 | QVQLVESGGGLVQAGGSLRLSCAASGRTFYSYTMGWYRPAPGKERELVAAISSRGGSTYYADSVKGRFTISRDNAKNTVYLQMNSLKPEDTAVYYCNAARYGRHLSTYDYWGQGTQVTVSS | high polyreactivity
31 | QVQLVESGGGLVQAGGSLRLSCAASGRTFAGYAMGWYRQAPGKERELVAAITNGGSTKYADSVKGRFTISRDNAKNTVYLQMNSLKPEDTAVYYCNARKRFYSGNTLMYYWGQGTQVTLSS | high polyreactivity
32 | QVQLVESGGGLVQAGGSLRLSCAASGSTLTRNDIGWYRQAPGKERELVAAITFSGSDTYYADSVKGRFTISRDNAKNTVYLQMNILKPEDTAVYYCAAEYGGYSIYLFIGRYYWGQGTQVTVSS | low polyreactivity
33 | QVQLVESGGGLVQAGGSLRLSCAASGRIIGVNAMGWYRQAPGKERELVAAISWSGGSTYYADSVKGRFTISRDNAKNTVYLQMNSLKPEDTAVYYCATTYFYARRPRGDYWGQGTQVTVSS | high polyreactivity
34 | QVQLVESGGGLVQAGGSLRLSCAASGFIYSSNAMGWYRQAPGKERELVAAISSSGGRTYYAVSVKGRFTISRDNAKNTVYLQMNRLKPEDTAVYYCNAYPRSRGSANDWGQGTQVPVSS | high polyreactivity
35 | QVQLVESGGGLVQAGGSLRLSCAASGITFWYYAMGWYRQAPGKERELVAVISRGGSTYYADSVKGRFTISRDNAKNTVYLQLNSLKPEDTAVYYCAARPRWYTYTRQEYDYWGQGTQVTVSS | high polyreactivity
36 | QVQLVESGAGLLQAGGSLRLSCAASGFIFVTYAMGWYRQAPGKERELVAAITNSGGTTYYADSVKGRFTISRDNAKNTVYLQMISLKPEDTAVYYCNKAYGAETAHREFVYWGQGTQVTVSS | low polyreactivity
37 | QVQLVESGGGLVQAGGSLRLSCAASGRIFPGYGMGWYRQAPGKERELVASISVGGGSTYYADSVKGRFTISRDNAKNTVYLQMNSLKPEDTAVYYCAADPSPYGDEYDYWGQGTQVTVSS | low polyreactivity
38 | QVQLVESGGGLVQAGGSLRLSSAASGSIFLYNAMGWYRQAPGKERELVAAISGSGGRTNYADSVKGRFTISRDHAKNTVYLQMNSLKPEVTAVYYCAAGYHVFRLGYARIPLYDYWGQGTQVTVSS | low polyreactivity
39 | QVQLVESGGGLVQAGGSLRLSCAASGFTIYRYAMGWYRQAPGKERELVAAITWSGVSTYYADSVKGRFTISRDNAKNTVYLQMNSLKPEDTAVYYCAATTYSSSSSHDYWGQGTQVTVSS | low polyreactivity
40 | QVQLVESGGGLVQAGGSLRLSCAASGSTRYWYAMGWYRQAPGKEREFFAGISIGGRTNYADSVKGRFTISRDNAKNTVYLQMNSLKPEDTAVYYCNAENTYVGSRYRPYNYWGQGTLVTVSS | low polyreactivity
41 | QVQLVESGGGLVQAGGSLRLSCAASGFTFTPNAMGWYRQAPGKERELVAVITWNGGTTYYADSVKGRFTISRDNAKNTVYLQMNSLKPEDTAVYYCNADGLILYDYWGQGTQVTVSS | low polyreactivity
42 | QVQLVESGGGLVQAGGSLRLSCAASGSTLGGNAMGWYRRAPGKERELVAAITSSAGSTYYADSVKGRFTISRDNAKNTVYLQMNSLKPEDTAVYYCAADYSRDEYDYWGQGTQVTVSS | low polyreactivity
43 | QVQLVESGGGLVQAGGSLRLSCASSGLTFRNYAMGGYRPAPGKERELVAAITVSGGSTYYADSVKGRFTISRDNAKNTVYLQMNSLKPEDTAVYYCAARVIHTTYSRNYYYWGQGTQVTVSS | high polyreactivity
